Reference: patent US9260754B2, “Connexin mutation detection for lymphatic variation and disease” (University of Pittsburgh—Of the Commonwealth System of …, priority 2010, dated 2016)
Entries after “also recorded” stand apart in the source; their conditions may differ.

How the values were obtained:
Assay type in all cases: cell-based, human
HeLa cell pairs = test: Dual whole cell patch clamp recording of coupling current in transfected HeLa cell pairs; conditions: for electrical coupling / functional channels in HeLa cell pairs (in words): transfected HeLa cell pairs, voltage step protocol −100 to +100 mV; for elect coupling: Table 3 (Example 2)
Procedure: Coupling currents were recorded using simultaneous double whole-cell patch clamp recordings from isolated pairs of cells that were in contact with one another (determined visually) as previously described. Briefly, the pipette solution consisted of (mM): 130 CsCl, 10 EGTA, 10 HEPES, 3 Mg-ATP, 2 Na-ATP, 0.5 CaCl2, pH 7.3. The culture was bathed in a solution consisting of (mM): 140 NaCl, 5 HEPES, 5 glucose, 4 KCl, 2 CsCl, 2 CaCl2, 2 pyruvate, 1 BaCl2, pH 7.3. Transfected HeLas undergo electrophysiologic analysis in a blinded manner. Pairs of cells were chosen for study only if both expressed the GFP marker indicative of successful transfections; both stable and transient transfectants were analyzed. Patch pipettes were fabricated from borosilicate glass, and coupling currents were amplified by Axopatch 200A amplifiers, filtered at 1 KHz, and digitized at 5 KHz for subsequent analysis using pClamp software (Axon Instruments/Molecular Devices; Sunnyvale, Calif.). All experiments were carried out at room temperature (22° C.). Coupling current was quantified by measuring the peak current recorded in the pair when the neighboring cell received a 100 mV step membrane potential change (in both positive and negative directions). Step changes in membrane potential were delivered to each cell in the pair in sequence and the average current recorded in the neighboring cell was determined and divided by 100 to generate coupling current expressed in pA/mV. Means±SEM were calculated and statistical significance using a one-way analysis of variance and Tukey's post-hoc test, p<0.05.
Coupling current is quantified by measuring the peak current recorded in the pair when the neighboring cell receives a 100 mV step membrane potential change (in both positive and negative directions). Step changes in membrane potential are delivered to each cell in the pair in sequence and the average current recorded in the neighboring cell determined and divided by 100 to generate coupling current expressed in pA/mV (FIG. 6C). Replicate measurements (n=3-6) are made on at least two different days. […] The untransfected HeLa cell pairs also show minimal channel function, as predicted.
Electrophysiologic characteristics of GJIC were measured between HeLa cell pairs transfected with the mutant constructs (as indicated by EGFP expression) by dual whole cell patch clamp recording. All experiments were carried out in a blinded manner. Coupling current is quantified by measuring the peak current recorded in the pair when the neighboring cell receives a 100 mV step membrane potential change (in both positive and negative directions). Step changes in membrane potential are delivered to each cell in the pair in sequence and the average current recorded in the neighboring cell determined and divided by 100 to generate coupling current expressed in pA/mV. Untransfected HeLa cells and cells transfected with empty vector (i.e., no hCx47) were used as additional controls.

HeLa cells [1] = test: Cx47 gap junction plaque formation by immunofluorescent confocal microscopy in transfected HeLa cells; conditions: near confluent transfected HeLa cells
Procedure: Human neonatal foreskin was collected anonymously as discarded tissue according to an IRB protocol. Samples were collected immediately after harvest in DMEM, then fixed in 2% paraformaldehyde for 2 hrs, then stored in 30% sucrose in 1×PBS overnight for cryosectioning, and sectioned in 6 μm slices at −30° C. Transfected (stable and transient) and untransfected HeLa cells were grown to near confluence in coverslip bottom dishes. All cells were rinsed with PBS and fixed with 2% paraformaldehyde. Subsequently, tissue and HeLa cells were processed similarly: following permeabilization with 0.1% Triton X, cells were blocked with 2% BSA. A human Cx47 antibody (ab) was obtained from the S. Scherer laboratory: polyclonal rabbit against amino acids 344-399 in the cytoplasmic C-terminal tail; we used human CNS tissue and positive oligodendrocyte staining as a positive control and primary antibody delete and rabbit IgG as negative controls (data not shown). Cx47 ab was diluted in 0.5% BSA in a 1:200 ratio, applied to cells and incubated at RT for one hour. Mouse monoclonal Proxl (Chemicon) was used as a lymphatic marker for the foreskin samples. Cells were incubated with the secondary abs (Donkey Anti-Rabbit Cy5 and Donkey Anti-Mouse Cy3; Invitrogen) for one hour at RT and washed; Draq5 was used as a nuclear marker. HeLa images were acquired with an inverted Olympus Fluoview 1000 Confocal Microscope 100× oil, 1.4 NA objective. Foreskin images were acquired on a Zeiss Meta LSM 510 inverted confocal microscope with 40× oil, 1.3 N.A. objective. LECs (primary human microvascular adult dermal lymphatics; Lonza) were grown in fibronectin coated coverslip bottom MatTeks dishes in EGM™-2 MV—Microvascular Endothelial Cell Medium-2 (Lonza Inc.) to approximately 80% confluence, and prepared similarly but a commercially available (AbCam) Cx47 ab, polyclonal rabbit against amino acids 41-70 in the human sequence was used along with Drag 5 nuclear marker and phalloidin to mark f-actin.
Immunofluorescence microscopy determines the presence or absence of Cx47 gap junction plaques when the constructs are transiently expressed in HeLa cells. Cx plaques reflect a physiologic accumulation of Cx channels in the cell membrane between cells (tens to thousands of channels); thus plaques are indicative of normal trafficking and gap junction formation at the cell membrane.
Immunofluorescence microscopy determines the presence or absence of Cx47 gap junction plaques when the constructs are transiently expressed in HeLa cells. A human Cx47 antibody was obtained: polyclonal rabbit against amino acids 344-399 in the cytoplasmic C-terminal tail (Orthmann-Murphy J L, et al. Mol Cell Neurosci 2007; 34:629-41); we used human CNS tissue and positive oligodendrocyte staining as a positive control and primary antibody delete as a negative control (data not shown). Cultured HeLa cells were routinely fixed and stained with the primary antibodies against Cx47, along with a nuclear marker, and transfected cells were identified by their EGFP signal. Plaques were imaged using an Olympus Fluoview 1000 confocal microscope, 100× oil objective.

HeLa cells [2] = test: Wound assay (proliferation/migration) in confluent transfected HeLa cells; conditions: fraction of original wound in HeLa cell monolayer after 24 hrs; mean ± SEM
Procedure: The wound assay, a measure of proliferation/migration, was performed using differential interference contrast time lapse of over 24 hrs using confluent transfected HeLa cells. Analysis was done using TScratch (Geback T, et al. TScratch: a novel and simple software tool for automated analysis of monolayer wound healing assays. Biotechniques 2009; 46:265-74), mean±SEM of at least 10 positions along wound; the scrape width was normalized to the first image for each position. In all cases a two tailed student's T test was applied with p<0.05 considered significant.

HeLa cells [3] = test: Calcein AM scrape loading and dye transfer in stably transfected HeLa cells; conditions: for dye transfer: ratio, rate normalized to untransfected HeLa cells, Calcein AM scrape loading, 10 min, stably transfected HeLa, mean ± SEM
Procedure: A confluent monolayer of HeLa cells (untransfected and stably transfected, as described above) was grown in DMEM with 10% FBS in coverslip bottom plates (MatTek) and placed in a temperature controlled microincubator (Zeiss). A 10×, 0.4 NA objective was used to collect DIC and GFP images every 5 seconds for 10 minutes without changing media. A pipette loaded with 1 μl Calcein AM (Invitrogen), a gap junction permissive dye with molecular weight 662, −4 charge when intracellular and fluorescent, was used to create a scrape across the monolayer. At least 5 replicate dishes were analyzed on the same day, and WT hCx47 expressing HeLas were grown and assayed as a concurrent control; assays were performed on at least 2 different batches of HeLa cells on different days. Quantitation of the rate of spread was calculated using MetaMorph, by obtaining integrated intensity at the 10th time point, within the first minute of imaging, and then at the endpoint at 10 min, and subtracting the initial intensity from that at the endpoint. Results are reported as mean and SEM, and tested for significance (p<0.05) using an unpaired Student's t-test.
In these mutants, Cx47 appears to concentrate in the ER. Unlike electrophysiologic measurements, dye transfer assays are used to assess GJIC of relatively large molecules. We also found significant differences in GJIC in HeLa cells overexpressing Cx47 lymphedema associated mutations by assessing rates of dye transfer in a conventional scrape assay using stably transfected HeLa cells normalized to rates in untransfected HeLa cells (FIG. 7D; Table 3). […] It is not surprising that the mutants show some differences in GJIC between the electrophysiologic and dye transfer assays given that they are designed to measure different kinds of transport and that Cx channel permeability is now believed to be governed by factors including molecular shape, charge and size, in addition to channel conformation and composition.

[4] = HeLa cell pairs, 100 mV step, mean ± SEM

Molecule	electrical coupling (HeLa cell pairs; Table 6 (Example 4), HeLa cell pairs, 100 mV step, mean ± SEM)	electrical coupling / functional channels in HeLa cell pairs (in words) (HeLa cell pairs)	Cx47 plaque formation (in words) (HeLa cells [1])	wound assay (HeLa cells [2])	elect coupling (HeLa cell pairs; [4])	dye transfer (HeLa cells [3])	Calcein AM dye transfer compared to WT-hCx47 transfected HeLa cells (in words) (HeLa cells [3]; stably transfected HeLa cells, scrape assay)
G183C: Cx47 missense mutant G183C (547G>T), intracellular loop, construct expressed in HeLa cells (protein, listed as Homo sapiens) MSWSFLTRLLEEIHNHSTFVGKVWLTVLVVFRIVLTAVGGEAIYSDEQAKFTCNTRQPGCDNVCYDAFAPLSHVRFWVFQIVVISTPSVMYLGYAVHRLARASEQERRRALRRRPGPRRAPRAHLPPPHAGWPEPADLGEEEPMLGLGEEEEEEETGAAEGAGEEAEEAGAEEACTKAVGADCKAAGTPGPTGQHDGRRRIQREGLMRVYVAQLVARAAFEVAFLVGQYLLYGFEVRPFFPCSRQPCPHVVDCFVSRPTEKTVFLLVMYVVSCLCLLLNLCEMAHLGLGSAQDAVRGRRGPPASAPAPAPRPPPCAFPAAAAGLACPPDYSLVVRAAERARAHDQNLANLALQALRDGAAAGDRDRDSSPCVGLPAASRGPPRAGAPASRTGSATSAGTVGEQGRPGTHERPGAKPRAGSEKGSASSRDGKTTVWI	68.6 pA/mV	increased electrical coupling; also recorded: increased peak coupling currents	Cx47 intercellular plaques	0.68			
S45L: Cx47 missense mutant S45L (134C>T), extracellular loop 1, construct expressed in HeLa cells (protein, listed as Homo sapiens) MSWSFLTRLLEEIHNHSTFVGKVWLTVLVVFRIVLTAVGGEAIYLDEQAKFTCNTRQPGCDNVCYDAFAPLSHVRFWVFQIVVISTPSVMYLGYAVHRLARASEQERRRALRRRPGPRRAPRAHLPPPHAGWPEPADLGEEEPMLGLGEEEEEEETGAAEGAGEEAEEAGAEEACTKAVGADGKAAGTPGPTGQHDGRRRIQREGLMRVYVAQLVARAAFEVAFLVGQYLLYGFEVRPFFPCSRQPCPHVVDCFVSRPTEKTVFLLVMYVVSCLCLLLNLCEMAHLGLGSAQDAVRGRRGPPASAPAPAPRPPPCAFPAAAAGLACPPDYSLVVRAAERARAHDQNLANLALQALRDGAAAGDRDRDSSPCVGLPAASRGPPRAGAPASRTGSATSAGTVGEQGRPGTHERPGAKPRAGSEKGSASSRDGKTTVWI		absence of coupling; also recorded: do not exhibit functional channels	absence; also recorded: fail to demonstrate Cx 47 plaques		0.1 pA/mV	1.11	
R257C: Cx47 missense mutant R257C (769C>T), extracellular loop 2, construct expressed in HeLa cells (protein, listed as Homo sapiens) MSWSFLTRLLEEIHNHSTFVGKVWLTVLVVFRIVLTAVGGEAIYSDEQAKFTCNTRQPGCDNVCYDAFAPLSHVRFWVFQIVVISTPSVMYLGYAVHRLARASEQERRRALRRRPGPRRAPRAHLPPPHAGWPEPADLGEEEPMLGLGEEEEEEETGAAEGAGEEAEEAGAEEACTKAVGADGKAAGTPGPTGQHDGRRRIQREGLMRVYVAQLVARAAFEVAFLVGQYLLYGFEVRPFFPCSRQPCPHVVDCFVSCPTEKTVFLLVMYVVSCLCLLLNLCEMAHLGLGSAQDAVRGRRGPPASAPAPAPRPPPCAFPAAAAGLACPPDYSLVVRAAERARAHDQNLANLALQALRDGAAAGDRDRDSSPCVGLPAASRGPPRAGAPASRTGSATSAGTVGEQGRPGTHERPGAKPRAGSEKGSASSRDGKTTVWI		absence of coupling; also recorded: do not exhibit functional channels	absence; also recorded: fail to demonstrate Cx 47 plaques		0.0 pA/mV	2.56	significantly greater dye transfer
P313L: Cx47 missense mutant P313L (938C>T), C-terminal, construct expressed in HeLa cells (protein, listed as Homo sapiens) MSWSFLTRLLEEIHNHSTFVGKVWLTVLVVFRIVLTAVGGEAIYSDEQAKFTCNTRQPGCDNVCYDAFAPLSHVRFWVFQIVVISTPSVMYLGYAVHRLARASEQERRRALRRRPGPRRAPRAHLPPPHAGWPEPADLGEEEPMLGLGEEEEEEETGAAEGAGEEAEEAGAEEACTKAVGADGKAAGTPGPTGQHDGRRRIQREGLMRVYVAQLVARAAFEVAFLVGQYLLYGFEVRPFFPCSRQPCPHVVDCFVSRPTEKTVFLLVMYVVSCLCLLLNLCEMAHLGLGSAQDAVRGRRGPPASAPAPAPRPLPCAFPAAAAGLACPPDYSLVVRAAERARAHDQNLANLALQALRDGAAAGDRDRDSSPCVGLPAASRGPPRAGAPASRTGSATSAGTVGEQGRPGTHERPGAKPRAGSEKGSASSRDGKTTVWI		well coupled			37.6 pA/mV	2.10	
